Experimental data as given in paper doi:10.1101/2021.09.09.459598.

Biological target: soybean QUAC1 from Glycine max (GmQUAC1) (soybean (Glycine max))
Assay: cryo-EM structure

stoichiometry N: 2
Substance: soybean QUAC1 from Glycine max (GmQUAC1) (natural protein)
